Experimental data from US20250357519A1, “APPLICATIONS OF O2-INSENSITIVE FORMATE DEHYDROGENASE” (UNIVERSITY OF MARYLAND, BALTIMORE, priority 2022, published 2025).

Substrate: O=CO
Assay: purified protein, by the assay type

B1: Desulfovibrio vulgaris Hildenborough (DvH) FDH2, recombinant Strep-tag II-tagged (FDH2^Rec), large subunit DVU2482 SEQ ID NO: 31, small subunit DVU2481 SEQ ID … (protein)
chain: AELKIAKAKVTPSVCCFCAVGCGLLVYTDTQTGRSINIEGDPDHPTNEGTLCPKGASIWQTTERSKRVTKVLYRAPGAAAWEEKSWDWALPRIARKIKETRDATFELTNDKGQTVNRTRGIASVGSAAVDNEEGWLMQAMMRALGLVYIESHARIUHSSTVGALAESYGRGAMTNHWIDLKNSDVILIMGSNAAENHPISFKWVTRAQERGATLIHVDPRFTRTSAKADIHAHIRSGTDIAFFGGLIRYIMENDLFFRQYVVDYTNASYIVGADYGFADGLFTGFDAEKGTYNTKKWAFAADENGMTLKDPTLNDPRCVFQLMKAHYARYDRKTVSDVTGISEEQLATLWSTFASTGKPDRAGTILYAMGQCQHTVGVQNIRALSMIQLLLGNIGIAGGGVNALRGESNVQGTTDISLLCDNLSGYLPTPKASWATFDDYVKGTTPVDKDPKSANWWSNRGKYLASYMKSVYPTASHQDGYLWHPKVDDGKITDYSWLQIFERMSKGGFKGAFVWGQNPCAGGANAGKNRKAMETLDWMVVVNLFENESSLFWKGPGVDPAKVKTEVFFLPACMSVEKGGSIANSGRWLQWREPGPKPMGDSRSDGDIVLDLYDEIRKLYREEKGAFPEPVLALDTDYRTDGKYDHHKVAKTLNGKFLTDVTIGDKTYKAGQQVPGFAMLQADGSTTSGCWIFTGCYTDAGNMMARRDRTQTPEQAAIGLFPNWSYAWPANRRILYNRAAVDMTGKPFDPKRAVIAWNGEKWVGDVPDGGWKPGEKLPFIMIREGRGQLFGPGRVDGPFPEHYEPFESPLESHPFSKQRVNPTALAFSHEPKAVRDKRYPFICTTYRVTEQWQSGTMTRNTGWLKEMQPEGFCEISRELAKELGIANGDAVVLESLRGKVQVVAIVTPRLKPFKVMGEVMHEVGIPWQFGWGQHVGKGDSANLLSPSVGDPNTGIPETKVFMVNLRKA
For B1, the Km (other: 2 mM BV (anaerobic), full progress curve, calculated from kcat and kcat/Km, pH 8.0, 25.0 °C) was 2.1 ± 0.1 µM, the Km (other: BV (2 mM), anaerobic, initial velocities, 3 replicates, pH 8.0, 25 °C) was 3.5 ± 0.9 µM and the Km (other: BV (20 mM), anaerobic, initial velocities, 3 replicates, pH 8.0, 25 °C) was 7 ± 3 µM. For the same protein, the Km (other: DCPIP (air), full progress curve, calculated from kcat and kcat/Km, pH 8.0) was 4.5 ± 0.4 µM, the Km (other: DCPIP (anaerobic), full progress curve, calculated from kcat and kcat/Km, pH 8.0) was 3.7 ± 0.3 µM and the Km (other: PES/DCPIP, air, initial velocities, 10 replicates, pH 8.0) was 7 ± 1 µM. For the same protein, the Km (other: PES/DCPIP, anaerobic, initial velocities, 5 replicates, pH 8.0) was 5.5 ± 0.5 µM.
